B1: SARS-Cov2-3a, P0DTC3 (peptide)
chain: YDEPTTTTSVPL
B2: JAM3, Q9BX67 (peptide)
chain: DFRHKSSFVI
B3: MAP7D2, Q96T17 (peptide)
chain: GQETPLNTFC

The binders below were run against T1, FRMPD1, Q5SYB0 (assay: holdup assay). Conditions: plain residues with an end cap or a label only (N-terminal biotin on a linker: (peg)3).
T1 sequence (Q5SYB0 52-145, limits assumed, looked up): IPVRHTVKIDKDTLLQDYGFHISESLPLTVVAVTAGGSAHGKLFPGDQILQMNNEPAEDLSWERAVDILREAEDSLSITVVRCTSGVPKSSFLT
Parameters: key: below the threshold = too weak to quantify, mostly under pKd 3.1 to 4

Binder | pKd
B1 | below the threshold

Same assay, conditions: plain residues with an end cap or a label only (N-terminal biotin on a linker: ado-ado)

Binder | pKd
B2 | below the threshold
B3 | below the threshold

These binders were tested against PDZRN4_1, Q6ZMN7 (assay: holdup assay). Conditions: plain residues with an end cap or a label only (N-terminal biotin on a linker: (peg)3).
Chain of PDZRN4_1, Q6ZMN7 (Q6ZMN7 213-318): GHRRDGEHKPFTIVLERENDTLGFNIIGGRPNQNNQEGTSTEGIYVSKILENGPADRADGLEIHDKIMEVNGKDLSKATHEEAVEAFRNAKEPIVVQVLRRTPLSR
Parameters: key: below the threshold = too weak to quantify, mostly under pKd 3.1 to 4

Binder | pKd
B1 | below the threshold

Same assay, conditions: plain residues with an end cap or a label only (N-terminal biotin on a linker: ado-ado)

Binder | pKd
B2 | below the threshold
B3 | below the threshold

What follows are binders tested against FRMPD3, Q5JV73 (assay: holdup assay). Conditions: plain residues with an end cap or a label only (N-terminal biotin on a linker: (peg)3).
Chain of FRMPD3, Q5JV73 (Q5JV73 12-100): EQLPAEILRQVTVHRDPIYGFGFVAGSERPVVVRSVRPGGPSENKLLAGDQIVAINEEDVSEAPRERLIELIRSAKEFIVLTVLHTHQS
Parameters: key: below the threshold = too weak to quantify, mostly under pKd 3.1 to 4

Binder | pKd
B1 | below the threshold

Same assay, conditions: plain residues with an end cap or a label only (N-terminal biotin on a linker: ado-ado)

Binder | pKd
B2 | below the threshold
B3 | below the threshold

What follows are binders tested against MAGI2_4, Q86UL8 (assay: holdup assay). Conditions: plain residues with an end cap or a label only (N-terminal biotin on a linker: (peg)3).
Chain of MAGI2_4, Q86UL8 (Q86UL8 772-865): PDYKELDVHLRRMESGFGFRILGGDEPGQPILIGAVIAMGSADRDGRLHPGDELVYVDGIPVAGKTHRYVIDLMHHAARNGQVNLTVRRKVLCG
Parameters: key: below the threshold = too weak to quantify, mostly under pKd 3.1 to 4

Binder | pKd
B1 | below the threshold

Same assay, conditions: plain residues with an end cap or a label only (N-terminal biotin on a linker: ado-ado)

Binder | pKd
B2 | below the threshold
B3 | below the threshold

These binders were tested against MAST1, Q9Y2H9 (assay: holdup assay). Conditions: plain residues with an end cap or a label only (N-terminal biotin on a linker: (peg)3).
Chain of MAST1, Q9Y2H9 (Q9Y2H9 962-1065): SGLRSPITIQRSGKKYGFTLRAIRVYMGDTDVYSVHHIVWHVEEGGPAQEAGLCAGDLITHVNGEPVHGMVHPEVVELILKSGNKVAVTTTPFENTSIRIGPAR
Parameters: key: below the threshold = too weak to quantify, mostly under pKd 3.1 to 4

Binder | pKd
B1 | below the threshold

Same assay, conditions: plain residues with an end cap or a label only (N-terminal biotin on a linker: ado-ado)

Binder | pKd
B2 | below the threshold
B3 | 3.79

The binders below were run against FRMPD2_2, Q68DX3 (assay: holdup assay). Conditions: plain residues with an end cap or a label only (N-terminal biotin on a linker: (peg)3).
Chain of FRMPD2_2, Q68DX3 (Q68DX3 944-1038): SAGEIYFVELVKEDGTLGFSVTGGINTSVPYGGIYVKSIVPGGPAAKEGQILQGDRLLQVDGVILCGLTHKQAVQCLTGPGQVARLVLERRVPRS
Parameters: key: below the threshold = too weak to quantify, mostly under pKd 3.1 to 4

Binder | pKd
B1 | below the threshold

Same assay, conditions: plain residues with an end cap or a label only (N-terminal biotin on a linker: ado-ado)

Binder | pKd
B2 | below the threshold
B3 | below the threshold

These binders were tested against T2, HTRA3, P83110 (assay: holdup assay). Conditions: plain residues with an end cap or a label only (N-terminal biotin on a linker: (peg)3).
T2 sequence (P83110 354-453, limits assumed, looked up): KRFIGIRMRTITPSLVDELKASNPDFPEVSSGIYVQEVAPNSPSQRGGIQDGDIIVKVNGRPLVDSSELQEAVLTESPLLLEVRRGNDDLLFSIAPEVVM
Parameters: key: below the threshold = too weak to quantify, mostly under pKd 3.1 to 4

Binder | pKd
B1 | below the threshold

Same assay, conditions: plain residues with an end cap or a label only (N-terminal biotin on a linker: ado-ado)

Binder | pKd
B2 | 3.89
B3 | 4.55

Each binder was assayed against T3, SNTA1, Q13424 (assay: holdup assay). Conditions: plain residues with an end cap or a label only (N-terminal biotin on a linker: (peg)3).
T3 sequence (Q13424 82-180, limits assumed, looked up): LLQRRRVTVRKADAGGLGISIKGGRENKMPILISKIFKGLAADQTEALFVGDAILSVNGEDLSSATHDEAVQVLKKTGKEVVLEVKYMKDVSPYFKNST
Parameters: key: below the threshold = too weak to quantify, mostly under pKd 3.1 to 4

Binder | pKd
B1 | below the threshold

Same assay, conditions: plain residues with an end cap or a label only (N-terminal biotin on a linker: ado-ado)

Binder | pKd
B2 | below the threshold
B3 | below the threshold

What follows are binders tested against T4, SNTG2, Q9NY99 (assay: holdup assay). Conditions: plain residues with an end cap or a label only (N-terminal biotin on a linker: (peg)3).
T4 sequence (Q9NY99 68-166, limits assumed, looked up): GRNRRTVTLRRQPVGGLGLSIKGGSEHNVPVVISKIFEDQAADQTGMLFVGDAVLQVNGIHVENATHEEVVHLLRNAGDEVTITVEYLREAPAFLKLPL
Parameters: key: below the threshold = too weak to quantify, mostly under pKd 3.1 to 4

Binder | pKd
B1 | below the threshold

Same assay, conditions: plain residues with an end cap or a label only (N-terminal biotin on a linker: ado-ado)

Binder | pKd
B2 | below the threshold
B3 | 3.7

These binders were tested against Inadl_4, Q8NI35 (assay: holdup assay). Conditions: plain residues with an end cap or a label only (N-terminal biotin on a linker: (peg)3).
Chain of Inadl_4, Q8NI35 (Q8NI35 547-651): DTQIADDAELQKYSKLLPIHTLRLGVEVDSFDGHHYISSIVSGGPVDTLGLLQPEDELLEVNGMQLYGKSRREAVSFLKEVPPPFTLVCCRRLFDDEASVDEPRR
Parameters: key: below the threshold = too weak to quantify, mostly under pKd 3.1 to 4

Binder | pKd
B1 | below the threshold

Same assay, conditions: plain residues with an end cap or a label only (N-terminal biotin on a linker: ado-ado)

Binder | pKd
B2 | below the threshold
B3 | below the threshold

What follows are binders tested against FRMPD2_1, Q68DX3 (assay: holdup assay). Conditions: plain residues with an end cap or a label only (N-terminal biotin on a linker: (peg)3).
Chain of FRMPD2_1, Q68DX3 (Q68DX3 770-861): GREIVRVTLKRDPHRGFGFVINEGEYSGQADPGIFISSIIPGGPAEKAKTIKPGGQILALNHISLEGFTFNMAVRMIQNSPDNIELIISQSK
Parameters: key: below the threshold = too weak to quantify, mostly under pKd 3.1 to 4

Binder | pKd
B1 | below the threshold

Same assay, conditions: plain residues with an end cap or a label only (N-terminal biotin on a linker: ado-ado)

Binder | pKd
B2 | below the threshold
B3 | below the threshold

These binders were tested against T5, APBA3_1, O96018 (assay: holdup assay). Conditions: plain residues with an end cap or a label only (N-terminal biotin on a linker: (peg)3).
T5 sequence (O96018 389-490, limits assumed, looked up): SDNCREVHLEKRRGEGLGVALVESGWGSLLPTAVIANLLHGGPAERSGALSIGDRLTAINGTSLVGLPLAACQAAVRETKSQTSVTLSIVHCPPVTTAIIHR
Parameters: key: below the threshold = too weak to quantify, mostly under pKd 3.1 to 4

Binder | pKd
B1 | below the threshold

Same assay, conditions: plain residues with an end cap or a label only (N-terminal biotin on a linker: ado-ado)

Binder | pKd
B2 | below the threshold
B3 | below the threshold

These binders were tested against T6, LIN7C, Q9NUP9 (assay: holdup assay). Conditions: plain residues with an end cap or a label only (N-terminal biotin on a linker: (peg)3).
T6 sequence (Q9NUP9 88-185, limits assumed, looked up): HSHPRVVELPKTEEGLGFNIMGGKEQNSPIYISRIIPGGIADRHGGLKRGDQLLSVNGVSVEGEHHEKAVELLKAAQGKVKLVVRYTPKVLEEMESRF
Parameters: key: below the threshold = too weak to quantify, mostly under pKd 3.1 to 4

Binder | pKd
B1 | below the threshold

Same assay, conditions: plain residues with an end cap or a label only (N-terminal biotin on a linker: ado-ado)

Binder | pKd
B2 | 3.93
B3 | below the threshold

These binders were tested against T7, TX1BP3, O14907 (assay: holdup assay). Conditions: plain residues with an end cap or a label only (N-terminal biotin on a linker: (peg)3).
T7 sequence (O14907 10-122, limits assumed, looked up): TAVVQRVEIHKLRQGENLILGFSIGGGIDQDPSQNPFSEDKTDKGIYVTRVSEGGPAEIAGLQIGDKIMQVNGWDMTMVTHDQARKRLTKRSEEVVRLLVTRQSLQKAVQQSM
Parameters: key: below the threshold = too weak to quantify, mostly under pKd 3.1 to 4

Binder | pKd
B1 | below the threshold

Same assay, conditions: plain residues with an end cap or a label only (N-terminal biotin on a linker: ado-ado)

Binder | pKd
B2 | below the threshold
B3 | 4.04

These binders were tested against DLG2_3, Q15700 (assay: holdup assay). Conditions: plain residues with an end cap or a label only (N-terminal biotin on a linker: (peg)3).
Parameters: key: below the threshold = too weak to quantify, mostly under pKd 3.1 to 4

Binder | pKd
B1 | below the threshold

Same assay, conditions: plain residues with an end cap or a label only (N-terminal biotin on a linker: ado-ado)

Binder | pKd
B2 | 3.52
B3 | below the threshold

The binders below were run against PTPN3, P26045 (assay: holdup assay). Conditions: plain residues with an end cap or a label only (N-terminal biotin on a linker: (peg)3).
Chain of PTPN3, P26045 (P26045 505-587): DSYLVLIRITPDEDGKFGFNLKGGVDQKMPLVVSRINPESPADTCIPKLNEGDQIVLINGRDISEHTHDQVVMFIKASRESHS
Parameters: key: below the threshold = too weak to quantify, mostly under pKd 3.1 to 4

Binder | pKd
B1 | below the threshold

Same assay, conditions: plain residues with an end cap or a label only (N-terminal biotin on a linker: ado-ado)

Binder | pKd
B2 | 3.84
B3 | 4.38

Each binder was assayed against Inadl_5, Q8NI35 (assay: holdup assay). Conditions: plain residues with an end cap or a label only (N-terminal biotin on a linker: (peg)3).
Chain of Inadl_5, Q8NI35 (Q8NI35 673-780): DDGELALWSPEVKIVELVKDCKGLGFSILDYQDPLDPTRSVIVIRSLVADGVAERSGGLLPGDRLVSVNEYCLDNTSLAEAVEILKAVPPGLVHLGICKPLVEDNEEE
Parameters: key: below the threshold = too weak to quantify, mostly under pKd 3.1 to 4

Binder | pKd
B1 | below the threshold

Same assay, conditions: plain residues with an end cap or a label only (N-terminal biotin on a linker: ado-ado)

Binder | pKd
B2 | below the threshold
B3 | below the threshold

Each binder was assayed against T8, TJP3_3, O95049 (assay: holdup assay). Conditions: plain residues with an end cap or a label only (N-terminal biotin on a linker: (peg)3).
T8 sequence (O95049 375-456, limits assumed, looked up): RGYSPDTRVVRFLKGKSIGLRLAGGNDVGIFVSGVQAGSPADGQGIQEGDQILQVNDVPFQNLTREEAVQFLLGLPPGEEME
Parameters: key: below the threshold = too weak to quantify, mostly under pKd 3.1 to 4

Binder | pKd
B1 | below the threshold

Same assay, conditions: plain residues with an end cap or a label only (N-terminal biotin on a linker: ado-ado)

Binder | pKd
B2 | below the threshold
B3 | below the threshold

Each binder was assayed against ARHGEF12, Q9NZN5-2 (assay: holdup assay). Conditions: plain residues with an end cap or a label only (N-terminal biotin on a linker: (peg)3).
Chain of ARHGEF12, Q9NZN5-2 (Q9NZN5 other isoform, or with tags, fused parts or gaps): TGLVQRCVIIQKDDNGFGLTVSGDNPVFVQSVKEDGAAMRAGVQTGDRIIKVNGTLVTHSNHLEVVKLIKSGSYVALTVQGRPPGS
Parameters: key: below the threshold = too weak to quantify, mostly under pKd 3.1 to 4

Binder | pKd
B1 | below the threshold

Same assay, conditions: plain residues with an end cap or a label only (N-terminal biotin on a linker: ado-ado)

Binder | pKd
B2 | below the threshold
B3 | 3.77

What follows are binders tested against T9, DVL3, Q92997 (assay: holdup assay). Conditions: plain residues with an end cap or a label only (N-terminal biotin on a linker: (peg)3).
T9 sequence (Q92997 244-331, limits assumed, looked up): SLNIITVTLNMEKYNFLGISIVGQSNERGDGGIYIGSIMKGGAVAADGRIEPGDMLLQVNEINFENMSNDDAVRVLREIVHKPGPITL
Parameters: key: below the threshold = too weak to quantify, mostly under pKd 3.1 to 4

Binder | pKd
B1 | below the threshold

Same assay, conditions: plain residues with an end cap or a label only (N-terminal biotin on a linker: ado-ado)

Binder | pKd
B2 | below the threshold
B3 | below the threshold

The binders below were run against T10, PTPN13_1, Q12923 (assay: holdup assay). Conditions: plain residues with an end cap or a label only (N-terminal biotin on a linker: (peg)3).
T10 sequence (Q12923 1088-1188, limits assumed, looked up): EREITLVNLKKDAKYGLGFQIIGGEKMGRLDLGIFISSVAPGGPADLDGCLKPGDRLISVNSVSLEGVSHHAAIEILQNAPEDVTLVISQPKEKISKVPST
Parameters: key: below the threshold = too weak to quantify, mostly under pKd 3.1 to 4

Binder | pKd
B1 | below the threshold

Same assay, conditions: plain residues with an end cap or a label only (N-terminal biotin on a linker: ado-ado)

Binder | pKd
B2 | below the threshold
B3 | below the threshold

These binders were tested against GORASP1, Q9BQQ3 (assay: holdup assay). Conditions: plain residues with an end cap or a label only (N-terminal biotin on a linker: (peg)3).
Chain of GORASP1, Q9BQQ3 (Q9BQQ3 1-208): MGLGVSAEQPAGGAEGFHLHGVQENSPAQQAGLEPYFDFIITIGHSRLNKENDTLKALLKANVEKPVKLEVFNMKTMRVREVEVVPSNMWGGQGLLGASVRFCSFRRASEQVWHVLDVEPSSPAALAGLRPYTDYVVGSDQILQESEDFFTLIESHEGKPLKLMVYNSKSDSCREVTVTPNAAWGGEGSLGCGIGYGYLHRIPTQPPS
Parameters: key: below the threshold = too weak to quantify, mostly under pKd 3.1 to 4

Binder | pKd
B1 | below the threshold

Same assay, conditions: plain residues with an end cap or a label only (N-terminal biotin on a linker: ado-ado)

Binder | pKd
B2 | 4.82
B3 | 3.61

Each binder was assayed against GRIP2_3, Q9C0E4 (assay: holdup assay). Conditions: plain residues with an end cap or a label only (N-terminal biotin on a linker: (peg)3).
Chain of GRIP2_3, Q9C0E4 (Q9C0E4 238-339): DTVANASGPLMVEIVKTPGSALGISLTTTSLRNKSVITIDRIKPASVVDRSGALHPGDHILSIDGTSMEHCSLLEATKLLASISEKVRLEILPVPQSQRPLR
Parameters: key: below the threshold = too weak to quantify, mostly under pKd 3.1 to 4

Binder | pKd
B1 | below the threshold

Same assay, conditions: plain residues with an end cap or a label only (N-terminal biotin on a linker: ado-ado)

Binder | pKd
B2 | below the threshold
B3 | below the threshold

Each binder was assayed against T11, RHPN1, Q8TCX5 (assay: holdup assay). Conditions: plain residues with an end cap or a label only (N-terminal biotin on a linker: (peg)3).
T11 sequence (Q8TCX5 508-602, limits assumed, looked up): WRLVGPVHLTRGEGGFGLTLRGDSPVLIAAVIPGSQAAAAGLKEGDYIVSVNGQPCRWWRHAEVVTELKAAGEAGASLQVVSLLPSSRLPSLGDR
Parameters: key: below the threshold = too weak to quantify, mostly under pKd 3.1 to 4

Binder | pKd
B1 | below the threshold

Same assay, conditions: plain residues with an end cap or a label only (N-terminal biotin on a linker: ado-ado)

Binder | pKd
B2 | below the threshold
B3 | below the threshold

The binders below were run against T12, PDZD7_3, Q9H5P4 (assay: holdup assay). Conditions: plain residues with an end cap or a label only (N-terminal biotin on a linker: (peg)3).
T12 sequence (Q9H5P4 857-944, limits assumed, looked up): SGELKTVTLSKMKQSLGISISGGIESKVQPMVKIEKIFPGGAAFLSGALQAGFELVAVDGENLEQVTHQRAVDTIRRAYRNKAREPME
Parameters: key: below the threshold = too weak to quantify, mostly under pKd 3.1 to 4

Binder | pKd
B1 | below the threshold

Same assay, conditions: plain residues with an end cap or a label only (N-terminal biotin on a linker: ado-ado)

Binder | pKd
B2 | 4.85
B3 | 4.29

— PMC9482650, “Quantitative fragmentomics allow affinity mapping of interactomes” (Nature Communications, 2022)
